Experimental data taken from PMC10301331, “Molecular Engineering of E. coli Bacterioferritin: A Versatile Nanodimensional Protein Cage” (Molecules, 2023).

Target: the molecule itself
Experiment: SEC + other: dynamic light scattering; His-tag Bfr (alone or in ratios with WT Bfr) declustered at pH 2.0, incubated with Pro-Q Sapphire 365 NTA dye and Ni2+, reclustered by dialysis to pH 7.0 (methods: pH 8.0), then size exclusion

B1: His-tagged Escherichia coli bacterioferritin (C-terminal His-tag) (natural protein)
chain: not shown
notes: Escherichia coli bacterioferritin (Bfr) subunit; the gene coding for E. coli Bfr was cloned; also called His-tag Bfr; His-tagged Bfr; source: details in Supplementary Materials; not shown: His6 (after a two amino acid linker Leu-Glu), C-terminal, kept; copies: 24
stoichiometry N: 24
